According to publication PMC2768864 (The Journal of Experimental Medicine, 2009):

B1: Ixodes ricinus contact phase inhibitor (Ir-CPI) (natural protein)
chain: ANHKGRGRPAKCKLPPDDGPCRARIPSYYFDRKTKTCKEFMYGGCEGNENNFENITTCQEECRAKKV
B2: activated factor XII (FXIIa) (enzyme, human)
heavy: IPPWEAPKEHKYKAEEHTVVLTVTGEPCHFPFQYHRQLYHKCTHKGRPGPQPWCATTPNFDQDQRWGYCLEPKKVKDHCSKHSPCQKGGTCVNMPSGPHCLCPQHLTGNHCQKEKCFEPQLLRFFHKNEIWYRTEQAAVARCQCKGPDAHCQRLASQACRTNPCLHGGRCLEVEGHRLCHCPVGYTGAFCDVDTKASCYDGRGLSYRGLARTTLSGAPCQPWASEATYRNVTAEQARNWGLGGHAFCRNPDNDIRPWCFVLNRDRLSWEYCDLAQCQTPTQAAPPTPVSPRLHVPLMPAQPAPPKPQPTTRTPPQSQTPGALPAKREQPPSLTRNGPLSCGQRLRKSLSSMTR
light: VVGGLVALRGAHPYIAALYWGHSFCAGSLIAPCWVLTAAHCLQDRPAPEDLTVVLGQERRNHSCEPCQTLAVRSYRLHEAFSPVSYQHDLALLRLQEDADGSCALLSPYVQPVCLPSGAARPSETTLCQVAGWGHQFEGAEEYASFLQEAQVPFLSLERCSAPDVHGSSILPGMLCAGFLEGGTDACQGDSGGPLVCEDQAAERRLTLQGIISWGSGCGDRNKPGVYTDVAYYLAWIREHTVS
B3: plasma kallikrein (enzyme)
heavy: GCLTQLYENAFFRGGDVASMYTPNAQYCQMRCTFHPRCLLFSFLPASSINDMEKRFGCFLKDSVTGTLPKVHRTGAVSGHSLKQCGHQISACHRDIYKGVDMRGVNFNVSKVSSVEECQKRCTSNIRCQFFSYATQTFHKAEYRNNCLLKYSPGGTPTAIKVLSNVESGFSLKPCALSEIGCHMNIFQHLAFSDVDVARVLTPDAFVCRTICTYHPNCLFFTFYTNVWKIESQRNVCLLKTSESGTPSSSTPQENTISGYSLLTCKRTLPEPCHSKIYPGVDFGGEELNVTFVKGVNVCQETCTKMIRCQFFTYSLLPEDCKEEKCKCFLRLSMDGSPTRIAYGTQGSSGYSLRLCNTGDNSVCTTKTSTR
light: not shown

What was measured:
Test in all cases: SPR
[1] = target: B2
[2] = target: activated factor XI (FXIa) (human, UniProt P03951 19-387; P03951 388-625)
plasma kallikrein = target: B3
[3] = target: B1

plasma kallikrein, sequence (P03952 391-638): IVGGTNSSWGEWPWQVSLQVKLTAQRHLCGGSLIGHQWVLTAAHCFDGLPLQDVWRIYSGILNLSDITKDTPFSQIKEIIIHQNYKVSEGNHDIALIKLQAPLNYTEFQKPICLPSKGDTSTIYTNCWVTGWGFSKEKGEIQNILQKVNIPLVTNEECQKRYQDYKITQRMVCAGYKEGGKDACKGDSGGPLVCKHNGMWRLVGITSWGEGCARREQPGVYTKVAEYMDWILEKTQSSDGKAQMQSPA
activated factor XI (FXIa), sequence (P03951 19-387, chain 1 of 2): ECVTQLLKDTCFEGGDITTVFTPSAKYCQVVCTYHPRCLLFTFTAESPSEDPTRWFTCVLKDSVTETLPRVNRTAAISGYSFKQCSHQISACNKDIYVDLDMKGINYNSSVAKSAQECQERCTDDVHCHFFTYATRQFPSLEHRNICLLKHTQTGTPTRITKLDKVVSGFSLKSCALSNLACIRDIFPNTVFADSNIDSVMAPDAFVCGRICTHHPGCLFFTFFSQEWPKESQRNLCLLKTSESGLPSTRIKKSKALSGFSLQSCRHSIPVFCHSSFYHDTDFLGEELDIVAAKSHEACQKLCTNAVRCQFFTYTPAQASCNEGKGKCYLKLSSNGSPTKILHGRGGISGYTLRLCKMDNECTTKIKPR
activated factor XI (FXIa), sequence (P03951 388-625, chain 2 of 2): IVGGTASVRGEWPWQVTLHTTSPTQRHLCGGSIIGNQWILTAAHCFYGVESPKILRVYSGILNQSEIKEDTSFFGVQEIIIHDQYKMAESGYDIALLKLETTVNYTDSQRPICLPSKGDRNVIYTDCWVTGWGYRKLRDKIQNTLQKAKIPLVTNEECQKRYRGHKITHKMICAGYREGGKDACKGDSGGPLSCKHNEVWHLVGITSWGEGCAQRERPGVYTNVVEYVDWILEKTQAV

Row | Ka [1] | Ka [2] | Ka (plasma kallikrein) | ka1 (two-state model, formation of AB) [3] | ka2 (two-state model, forward conformation change) [3] | kd1 (two-state model, dissociation of AB) [3] | kd2 (two-state model, backward conformation change) [3] | Binder
1 | 1.68e+08 M⁻¹ | 3.83e+08 M⁻¹ | 4.51e+06 M⁻¹ | – | – | – | – | B1
2 | – | – | – | 219000 M⁻¹ s⁻¹ | 0.655 s⁻¹ | 0.0946 s⁻¹ | 0.105 s⁻¹ | B2
3 | – | – | – | 34900 M⁻¹ s⁻¹ | 0.00834 s⁻¹ | 0.0532 s⁻¹ | 0.00142 s⁻¹ | B3
